Results from US20230250178A1.

What was measured:
[1] = target: cynomolgus CCR8 (cynomolgus); experiment: FACS, CHO-cynoCCR8
human CCR8 (human) [2] = target: human CCR8 (human) (UniProt P51685); experiment: cell-based or functional assay
human CCR8 (human) [3] = target: human CCR8 (human) (UniProt P51685); experiment: FACS, BODIPY-labelled antibody, HuT78
human CCR8 (human) [4] = target: human CCR8 (human) (UniProt P51685); experiment: FACS, CHO-hCCR8

Chain of cynomolgus CCR8 (cynomolgus) (O97665 other isoform, or with tags, fused parts or gaps): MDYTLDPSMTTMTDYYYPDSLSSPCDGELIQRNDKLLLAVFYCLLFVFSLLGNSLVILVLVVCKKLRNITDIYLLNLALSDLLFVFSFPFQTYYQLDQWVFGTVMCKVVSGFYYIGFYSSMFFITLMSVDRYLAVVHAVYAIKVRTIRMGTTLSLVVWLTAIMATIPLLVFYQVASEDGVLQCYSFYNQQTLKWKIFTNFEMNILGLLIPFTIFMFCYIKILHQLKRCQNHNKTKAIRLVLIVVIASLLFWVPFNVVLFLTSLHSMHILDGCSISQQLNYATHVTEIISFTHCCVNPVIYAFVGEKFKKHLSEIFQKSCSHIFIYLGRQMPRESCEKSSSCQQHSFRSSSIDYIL

B1: 433H (antibody, from another filing, V domains shown)
VH: EVQLVETGGGLVQPKGSLRLSCAASGFPFNTFAMNWVRQAPGKGLEWLARIRSKSNNYATYYADSVKDRFTISRDDSRRMLYLLMNNVKFEDTAIYYCVRGKENNYGYAMDYWGQGTSVTVSS
VL: DIVMTQAAPSVPVTPGESVSISCRSSQSLLHSNGNTYLYWFLQRPGQSPQLLIYRMSNLASGVPDRFSGSGSGTAFTLRISRVEAEDVGVYYCMQHLEYPFTFGIGTKLELKR
[1]
  EC50: 12.1 nM
Human CCR8 (human) [2]
  IC50, Ca flux assay: 1.3 nM
  IC50, inhibition of CCL1 induced β-arrestin signaling: 0.78 nM
Human CCR8 (human) [3]
  FACS HuT78 [MFI]: 50 MFI
Human CCR8 (human) [4]
  EC50: 2.8 nM
